According to publication PMC9287124:

Target: Shp2 (UniProt Q06124)
Experiment: GST pull-down from lysate, LC-MS/MS
Conditions: reference: wild-type GST-PD-1ICD; sites Y223,Y248

Substance: PD-1 ICD, 194-288 (from UniProt Q15116) PD-1ICD-FF (Y223F, Y248F)
- binding against the reference: weaker
